# According to the DeepSol protein solubility set:
# Assay: soluble on expression in E. coli; label from the status in PepcDB or PDB records
row,Sequence,soluble on expression in E. coli
1,SNAEELIEIREARMDDLDTIAKFNYNLAKETEGKELDMDVLTKGVKALLLDERKGKYHVYTVFDKVVAQIMYTYEWSDWRNGNFLWIQSVYVDKEYRRKGIFNYLFNYIKNICDKDENIVGMRLYVEKENINAKATYESLNMYECDYNMYEYEVIHS,soluble
2,SNAMAKNKLLRMDNVSIVVESLDNAISFFEEIGLNLEGRANVEGEWAGRVTGLGSQCVEIAMMVTPDGHSRIELSRFLTPPTIADHRTAPVNALGYLRVMFTVEDIDEMVSRLTKHGAELVGEVVQYENSYRLCYIRGVEGILIGLAEELGNK,soluble
3,SNAMANIKIRQETPTAFYIKVHDTDNVAIIVNDNGLKAGTRFPDGLELIEHIPQGHKVALLDIPANGEIIRYGEVIGYAVRAIPRGSWIDESMVVLPEA,soluble
4,SNAMATKLVIAIVQDKDANYLSDQFIDQNVRATKLSTTGGFLQSGNTTFMIGIEEERVPEVLEIIKKASHTREEFMTPSVNMDVNMEGTTAYPIKVQVGGATVLVLPVDQFERF,soluble
5,SNAMKILLIGASGTLGSAVKERLEKKAEVITAGRHSGDVTVDITNIDSIKKMYEQVGKVDAIVSATGSATFSPLTELTPEKNAVTISSKLGGQINLVLLGIDSLNDKGSFTLTTGIMMEDPIVQGASAAMANGAVTAFAKSAAIEMPRGIRINTVSPNVLEESWDKLEPFFEGFLPVPAAKVARAFEKSVFGAQTGESYQVY,soluble
6,SNAMKMSELEKMLKGEHFDGASAEIEALRSQAGRLKLEINQSLDEAERYALQRELFGHLGHKSCVQPPFHCEFGKTIRIGDHTFINMNVVMLDGAPITIGDHVLIGPSTQFYTASHSLDYRRRQAWETICKPIVIEDDVWIGGNVVINQGVTIGARSVVAANSVVNQDVPPDTLVGGTPARILRSLKDPAESMAE,soluble
7,SNAMSTHVTFDYSKALSFIGEHEITYLRDAVKVTHHAIHEKTGAGNDFLGWVDLPLQYDKEEFARIQKCAEKIKNDSDILLVVGIGGSYLGARAAIEMLNHSFYNTLSKEQRKTPQVLFVGQNISSTYMKDLMDVLEGKDFSINVISKSGTTTEPALAFRIFRKLLEEKYGKEEARKRIYATTDKARGALKTLADNEGYETFVIPDDVGGRFSVLTPVGLLPIAVSGLNIEEMMKGAAAGRDDFGTSELEENPAYQYAVVRNALYNKGKTIEMLINYEPALQYFAEWWKQLFGESEGKDQKGIFPSSANFSTDLHSLGQYVQEGRRDLFETVLKVGKSTHELTIESEENDLDGLNYLAGETVDFVNTKAYEGTLLAHSDGGVPNLIVNIPELNEYTFGYLVYFFEKACAMSGYLLGVNPFDQPGVEAYKKNMFALLGKPGFEELKAELEERLK,soluble
8,SPCDTNWRYYGDSCYGFFRHNLTWEESKQYCTDMNATLLKIDNRNIVEYIKARTHLIRWVGLSRQKSNEVWKWEDGSVISENMFEFLEDGKGNMNCAYFHNGKMHPTFCENKHYLMCERKAG,soluble
9,SPLHVSLANGNRDLDYDSVQPYFMCDDEEEDVHHQQPPQPPAPSEDIWKKFELLPTPRPSPGHAGLYSPPCEAVAVSFAPRDHDGDSFSIADLPELPGGDAVKQSFVCDPDDETFVKNIILQDCMWNGFSASAKLVSKLDPYQAVRKEGTGVSLAADVEPATPPDCTCNT,soluble
10,SPPIGNQLGALVHQRTVITEEFKVPDKMVGFIIGRGGEQISRIQAESGCKIQIASESSGIPERPCVLTGTPESIEQAKRLLGQIVDRCRNGPGFHNDIDSNSTIQEILIPASKVGLVIGRGGETIKQLQERTGVKMVMIQDGPLPTGADKPLRITGDAFKVQQAREMVLEIIREKDQADFRGVRGDFNSRMGGGSIEVSVPRFAVGIVIGRNGEMIKKIQNDAGVRIQFKPDDGISPEYYRQQVAFYGQTLGQAQAHSQEQ,soluble
11,SPPNLTPAQSNRVCNSLALLQCVASHSDTRMLFLKAHIPLYLYPFLNTTSKSRPFEYLRLTSLGVIGALVKVDDTEVISFLLSTEIIPLCLRTMEMGSELSKTVATFIVQKILLDDVGMDYICTTAERFFAVGRVLGNMVQSLVEQPSPRLLKHIIRCYLRLSDNPRACAALASCLPDSLRDGSFSNCLREDPTARRWLQQLVHNVGVGRVPTHQGGGFEHML,not soluble
12,SPSETLWEIAKAEVEKRGINGSEGDGAEIAEKFVFFIGSKNGGKTTIILRCLDRDEPPKPTLALEYTYGRRAKGHNTPKDIAHFWELGGGTSLLDLISIPITGDTLRTFSLVLVLDLSKPNDLWPTMENLLQATKSHVDKVIMKLGKTNAKAVSEMRQKIWNNMPKDHPQDHELIDPFPVPLVIIGSKYDVFQDFESEKRKVICKTLRFVAHYYGASLMFTSKSEALLLKIRGVINQLAFGIDKSKSICVDQNKPLFITAGLDSFGQIGSPPVPENDIGKLHAHSPMELWKKVYEKLFPPKSINTLKDIKDPARDPQYAENEVDEMRIQKDLELEQYKRSSSKSWKQIELDS,soluble
13,SPYVFSFKMPQEQGQMFQYYPVYMVLPWEQPQQTVPRSPQQTRQQQYEEQIPFYAQFGYIPQLAEPAISGGQQQLAFDPQLGTAPEIAVMSTGEEIPYLQKEAINFRHDSAGVFMPSTSPKPSTTNVFTSAVDQTITPELPEEKDKTDSLREP,soluble
14,SQDPSGDKVCRAGGEEDGEDGQHTSRVHDTEADPHHTEASSHRTEGSSHLTETSSRPSEAENGHDNSPHVNRAQDVGTQASPQGSLNSRVPVEARVVVEEAAIAPQGEQAPIIPGPSGDAATTAGSRLLEFSVTVPFRTAVEANIACRTLASNIQQQQVMVQQEFTVNDTILTVRWTTEDPVLFRTSINAFLDQLSLVVRNIPRPVFMAVFKQGRGRNN,soluble
15,SQEIVAGELERCFLAMPESVLPIVTMEERNDLCRRAGHLSGFTHTASLESSLGGTVTFLLNRNFIRIQTSTVGEVFMRILPFSDSSSVICVVTTVLHPVADSRIDFYTTEWKPLKTDRFWQQPRIEDFFLPHTDRQSYAYQAIYASLTPSYMQVSLSEESDTLSIRQTVTETLAEEEKPLAAIFLSPEPLVYRWQSGRFVRQVR,soluble
16,SQTLRIGYVSSLLYGLLPEIIYLFRQQNPEIHIELIECGTKDQINALKQGKIDLGFGRLKITDPAIRHIVLHKEQLKLAIHKHHHLNQFAATGVHLSQIIDEPMLLYPVSQKPNFATFIQSLFTELGLVPSKLTEIREIQLALGLVAAGEGVCIVPASAMDIGVKNLLYIPILDDDAYSPISLAVRNMDHSNYIPKILACVQEVFATHHIRPLIESILEHHHHHH,soluble
17,SRTVIPGAVKYTLVYDNGSSQAVIATAPEITPTELEATLRQAASHLYSYGRLGSRGNNQLTIRARTIIHAEPGVSVPVYLGKVQRTLTTREDPEMAVEVYLDKFAQLSKPTA,not soluble
18,SSASDGFKANLVFKEIEKKLEEEGEQFVKKIGGIFAFKVKDGPGGKEATWVVDVKNGKGSVLPNSDKKADCTITMADSDFLALMTGKMNPQSAFFQGKLKITGNMGLAMKLQNLQLQPGNAKL,soluble
19,SSESESGGDFHEMREPRIEKVVVHMGIGHGGRDLANAEDILGEITGQMPVRTKAKRTVGEFDIREGDPIGAKVTLRDEMAEEFLQTALPLAELATSQFDDTGNFSFGVEEHTEFPSQEYDPSIGIYGLDVTVNLVRPGYRVAKRDKASRSIPTKHRLNPADAVAFIESTYDVEVSE,soluble
20,SSGHKCYPWDLQDRYAQDKSVVNKMQQKYWETKQAFIKATGKKEDEHVVASDADLDAKLELFHSIQRTCLDLSKAIVLYQKRICFLSQEENELGKFLRSQGFQDKTRAGKMMQATGKALCFSSQQRLALRNPLCRFHQEVETFRHRAISDTWLTVNRMEQCRTEYRGALLWMKDVSQELDPDLYKQMEKFRKVQTQVRLAKKNFDKLKMDVCQKVDLLGASRCNLLSHMLATYQTTLLHFWEKTSHTMAAIHESFKGYQPYEFTTLKSLQDPMKKLVEKEEKKKINQQESTDAAVQEPSQLISLEEENQRKESSSFKTEDGKSILSALDKGSTHTACSGPIDELLDMKSEEGACLGPVAGTPEPEGADKDDLLLLSEIFNASSLEEGEFSKEWAAVFGDGQVKEPVPTMALGEPDPKAQTGSGFLPSQLLDQNMKDLQASLQEPAKAASDLTAWFSLFADLDPLSNPDAVGKTDKEHELLNA,soluble
